Reference: patent publication US20170015738A1
Values joined by “and” are separate entries in the source; they are usually repeats but may differ in a detail not shown here. Identical values can stand only once. Values belong to the substance of their own block, whether it stands above or below them.

Columns and labels:
[1] = molecular target: pathological hyperphosphorylated tau from human Alzheimer's disease brain, sarkosyl-insoluble P3 fraction (human) (UniProt P10636); test: fluid phase MSD ELISA: inhibition of tau antigen capture
[2] = molecular target: pathological hyperphosphorylated tau from human Alzheimer's disease brain, sarkosyl-insoluble P3 fraction (human) (UniProt P10636); test: fluid phase MSD ELISA: inhibition of AD-P3 tau antigen capture
[3] = molecular target: pathological hyperphosphorylated tau from human Alzheimer's disease brain, sarkosyl-insoluble P3 fraction (human) (UniProt P10636); test: MSD, AD-P3 coated plate (FIG. 34); C10-2 3 ng/ml + PBS/0.1% BSA (no competitor)
[4] = molecular target: pathological hyperphosphorylated tau from human Alzheimer's disease brain, sarkosyl-insoluble P3 fraction (human) (UniProt P10636); test: MSD, AD-P3 coated plate (FIG. 34); C10-2 10 ng/ml + PBS/0.1% BSA (no competitor)
[5] = molecular target: pathological hyperphosphorylated tau from human Alzheimer's disease brain, sarkosyl-insoluble P3 fraction (human) (UniProt P10636); test: MSD, AD-P3 coated plate (FIG. 34); C10-2 30 ng/ml + PBS/0.1% BSA (no competitor)
[6] = molecular target: pathological hyperphosphorylated tau from human Alzheimer's disease brain, sarkosyl-insoluble P3 fraction (human) (UniProt P10636); test: MSD, AD-P3 coated plate (FIG. 34); C10-2 100 ng/ml + PBS/0.1% BSA (no competitor)
[7] = molecular target: pathological hyperphosphorylated tau from human Alzheimer's disease brain, sarkosyl-insoluble P3 fraction (human) (UniProt P10636); test: MSD, AD-P3 coated plate (FIG. 34); C10-2 300 ng/ml + PBS/0.1% BSA (no competitor)
[8] = molecular target: hyperphosphorylated tau phosphorylated at serine 396 in human Alzheimer brain (extracts and sections) (human) (UniProt P10636); test: immunodepletion of Alzheimer brain extract; western blot; compared to hHel control antibody
[9] = molecular target: pathological hyperphosphorylated tau from human Alzheimer's disease brain, sarkosyl-insoluble P3 fraction (human) (UniProt P10636); test: MSD, AD-P3 coated plate (FIG. 34); C10-2 1000 ng/ml + PBS/0.1% BSA (no competitor)
[10] = molecular target: pathological hyperphosphorylated tau from human Alzheimer's disease brain, sarkosyl-insoluble P3 fraction (human) (UniProt P10636); test: fluid phase MSD ELISA: antibody mixed with AD P3 in solution, capture on C10-2 coated plates
[11] = molecular target: pathological hyperphosphorylated tau from human Alzheimer's disease brain, sarkosyl-insoluble P3 fraction (human) (UniProt P10636); test: fluid phase inhibition of Ptau antigen capture in C10-2 coated plate (comparison with mD1.2)
[12] = molecular target: pathological hyperphosphorylated tau from human Alzheimer's disease brain, sarkosyl-insoluble P3 fraction (human) (UniProt P10636); test: MSD, AD-P3 coated plate (FIG. 34); C10-2 10000 ng/ml + PBS/0.1% BSA (no competitor)
[13] = molecular target: hyperphosphorylated tau phosphorylated at serine 396 in human Alzheimer brain (extracts and sections) (human) (UniProt P10636); test: immunodepletion of Alzheimer brain extract with antibody on Protein G Dynabeads; western blot
[14] = molecular target: pathological hyperphosphorylated tau from human Alzheimer's disease brain, sarkosyl-insoluble P3 fraction (human) (UniProt P10636); test: MSD ELISA on immobilised P3 tau; ratio of binding to AD over healthy control at saturation
[15] = molecular target: pathological hyperphosphorylated tau from human Alzheimer's disease brain, sarkosyl-insoluble P3 fraction (human) (UniProt P10636); test: fluid phase inhibition of p-tau antigen capture in mC10-2 coated plate (comparison with PHF-13)
[16] = molecular target: pathological hyperphosphorylated tau from human Alzheimer's disease brain, sarkosyl-insoluble P3 fraction (human) (UniProt P10636); test: MSD, AD-P3 coated plate (FIG. 34); C10-2 3 ng/ml + 10 µM tau peptide as competitor
[17] = molecular target: pathological hyperphosphorylated tau from human Alzheimer's disease brain, sarkosyl-insoluble P3 fraction (human) (UniProt P10636); test: MSD, AD-P3 coated plate (FIG. 34); C10-2 10 ng/ml + 10 µM tau peptide as competitor
[18] = molecular target: pathological hyperphosphorylated tau from human Alzheimer's disease brain, sarkosyl-insoluble P3 fraction (human) (UniProt P10636); test: MSD, AD-P3 coated plate (FIG. 34); C10-2 30 ng/ml + 10 µM tau peptide as competitor
[19] = molecular target: pathological hyperphosphorylated tau from human Alzheimer's disease brain, sarkosyl-insoluble P3 fraction (human) (UniProt P10636); test: MSD, AD-P3 coated plate (FIG. 34); C10-2 100 ng/ml + 10 µM tau peptide as competitor
[20] = molecular target: pathological hyperphosphorylated tau from human Alzheimer's disease brain, sarkosyl-insoluble P3 fraction (human) (UniProt P10636); test: MSD, AD-P3 coated plate (FIG. 34); C10-2 300 ng/ml + 10 µM tau peptide as competitor
[21] = molecular target: pathological hyperphosphorylated tau from human Alzheimer's disease brain, sarkosyl-insoluble P3 fraction (human) (UniProt P10636); test: MSD, AD-P3 coated plate (FIG. 34); C10-2 1000 ng/ml + 10 µM tau peptide as competitor
[22] = molecular target: pathological hyperphosphorylated tau from human Alzheimer's disease brain, sarkosyl-insoluble P3 fraction (human) (UniProt P10636); test: MSD, AD-P3 coated plate (FIG. 34); C10-2 10000 ng/ml + 10 µM tau peptide as competitor
[23] = molecular target: hyperphosphorylated tau phosphorylated at serine 396 in human Alzheimer brain (extracts and sections) (human) (UniProt P10636); test: immunodepletion of Alzheimer brain extract; western blot
[24] = molecular target: total tau in Alzheimer brain extract (human) (UniProt P10636); test: as above
[25] = molecular target: hyper-phosphorylated P301L mutant human 4R0N tau from rTg4510 mouse brain (64 and 70 kDa species; P3 / brain extract) (human) (UniProt P10636); test: MSD ELISA on immobilised P3; ratio of binding to Tg4510 over wt mouse material
[26] = molecular target: aggregated Tau in Alzheimer brain extract (Cisbio assay) (human) (UniProt P10636); test: immunodepletion of AD extract; Cisbio tau aggregation assay; in comparison to hHel antibody
[27] = molecular target: pathological hyperphosphorylated tau from human Alzheimer's disease brain, sarkosyl-insoluble P3 fraction (human) (UniProt P10636); test: fluid phase inhibition of p-tau antigen capture in mC10-2 coated plate
[28] = molecular target: pathological hyperphosphorylated tau from human Alzheimer's disease brain, sarkosyl-insoluble P3 fraction (human) (UniProt P10636); test: MSD, AD-P3 coated plate (FIG. 34); PHF 13 at '1000' (unit inferred) + PBS/0.1% BSA (no competitor)
[29] = molecular target: pathological hyperphosphorylated tau from human Alzheimer's disease brain, sarkosyl-insoluble P3 fraction (human) (UniProt P10636); test: MSD, AD-P3 coated plate (FIG. 34); PHF 13 at '3000' (unit inferred) + PBS/0.1% BSA (no competitor)
[30] = molecular target: pathological hyperphosphorylated tau from human Alzheimer's disease brain, sarkosyl-insoluble P3 fraction (human) (UniProt P10636); test: MSD, AD-P3 coated plate (FIG. 34); PHF 13 at '10000' (unit inferred) + PBS/0.1% BSA (no competitor)
[31] = molecular target: pathological hyperphosphorylated tau from human Alzheimer's disease brain, sarkosyl-insoluble P3 fraction (human) (UniProt P10636); test: MSD, AD-P3 coated plate (FIG. 34); PHF 13 at '30000' (unit inferred) + PBS/0.1% BSA (no competitor)
[32] = molecular target: pathological hyperphosphorylated tau from human Alzheimer's disease brain, sarkosyl-insoluble P3 fraction (human) (UniProt P10636); test: MSD, AD-P3 coated plate (FIG. 34); PHF 13 at '100000' (unit inferred) + PBS/0.1% BSA (no competitor)
[33] = molecular target: pathological hyperphosphorylated tau from human Alzheimer's disease brain, sarkosyl-insoluble P3 fraction (human) (UniProt P10636); test: MSD, AD-P3 coated plate (FIG. 34); PHF 13 at '300000' (unit inferred) + PBS/0.1% BSA (no competitor)
[34] = molecular target: pathological hyperphosphorylated tau from human Alzheimer's disease brain, sarkosyl-insoluble P3 fraction (human) (UniProt P10636); test: MSD, AD-P3 coated plate (FIG. 34); PHF 13 at '1000000' (unit inferred) + PBS/0.1% BSA (no competitor)
[35] = molecular target: pathological hyperphosphorylated tau from human Alzheimer's disease brain, sarkosyl-insoluble P3 fraction (human) (UniProt P10636); test: MSD, AD-P3 coated plate (FIG. 34); PHF 13 at '1000' (unit inferred) + 10 µM tau peptide as competitor
[36] = molecular target: pathological hyperphosphorylated tau from human Alzheimer's disease brain, sarkosyl-insoluble P3 fraction (human) (UniProt P10636); test: MSD, AD-P3 coated plate (FIG. 34); PHF 13 at '3000' (unit inferred) + 10 µM tau peptide as competitor
[37] = molecular target: pathological hyperphosphorylated tau from human Alzheimer's disease brain, sarkosyl-insoluble P3 fraction (human) (UniProt P10636); test: MSD, AD-P3 coated plate (FIG. 34); PHF 13 at '30000' (unit inferred) + 10 µM tau peptide as competitor
[38] = molecular target: pathological hyperphosphorylated tau from human Alzheimer's disease brain, sarkosyl-insoluble P3 fraction (human) (UniProt P10636); test: MSD, AD-P3 coated plate (FIG. 34); PHF 13 at '100000' (unit inferred) + 10 µM tau peptide as competitor
[39] = molecular target: pathological hyperphosphorylated tau from human Alzheimer's disease brain, sarkosyl-insoluble P3 fraction (human) (UniProt P10636); test: MSD, AD-P3 coated plate (FIG. 34); PHF 13 at '300000' (unit inferred) + 10 µM tau peptide as competitor
[40] = molecular target: pathological hyperphosphorylated tau from human Alzheimer's disease brain, sarkosyl-insoluble P3 fraction (human) (UniProt P10636); test: MSD, AD-P3 coated plate (FIG. 34); PHF 13 at '1000000' (unit inferred) + 10 µM tau peptide as competitor
[41] = molecular target: pathological hyperphosphorylated tau from human Alzheimer's disease brain, sarkosyl-insoluble P3 fraction (human) (UniProt P10636); test: MSD, AD-P3 coated plate (FIG. 34); PHF 13 at '10000M' (unit not explained) + 10 µM tau peptide as competitor
[42] = molecular target: normal P301L mutant human 4R0N tau from rTg4510 mouse brain (55 kDa band) (human) (UniProt P10636); test: immunodepletion of rTg4510 brain extracts; western blot quantification (FIG. 14)
Sequence of normal P301L mutant human 4R0N tau from rTg4510 mouse brain (55 kDa band) (human) (P10636 other isoform, or with tags, fused parts or gaps P301L P301L): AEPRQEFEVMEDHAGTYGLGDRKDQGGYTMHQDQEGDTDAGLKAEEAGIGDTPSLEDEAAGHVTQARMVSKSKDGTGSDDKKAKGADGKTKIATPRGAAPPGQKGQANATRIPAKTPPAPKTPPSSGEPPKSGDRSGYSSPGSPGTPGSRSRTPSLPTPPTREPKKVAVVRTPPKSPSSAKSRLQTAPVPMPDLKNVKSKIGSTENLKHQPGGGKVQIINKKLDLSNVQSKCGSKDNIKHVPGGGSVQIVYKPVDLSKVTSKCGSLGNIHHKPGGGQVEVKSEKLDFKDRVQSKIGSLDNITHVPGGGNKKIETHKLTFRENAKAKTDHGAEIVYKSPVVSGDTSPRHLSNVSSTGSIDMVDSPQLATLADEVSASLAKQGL

Sequence of HJ8.5 (antibody) (VH): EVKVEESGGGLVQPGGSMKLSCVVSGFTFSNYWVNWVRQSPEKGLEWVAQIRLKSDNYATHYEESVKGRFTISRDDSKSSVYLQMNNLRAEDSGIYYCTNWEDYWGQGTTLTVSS
Sequence of HJ8.5 (antibody) (VL): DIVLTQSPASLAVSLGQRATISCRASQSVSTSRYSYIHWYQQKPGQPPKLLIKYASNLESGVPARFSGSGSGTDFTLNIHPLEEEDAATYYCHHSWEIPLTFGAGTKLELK
Sequence of pathological hyperphosphorylated tau from human Alzheimer's disease brain, sarkosyl-insoluble P3 fraction (human) (P10636 other isoform, or with tags, fused parts or gaps limits assumed): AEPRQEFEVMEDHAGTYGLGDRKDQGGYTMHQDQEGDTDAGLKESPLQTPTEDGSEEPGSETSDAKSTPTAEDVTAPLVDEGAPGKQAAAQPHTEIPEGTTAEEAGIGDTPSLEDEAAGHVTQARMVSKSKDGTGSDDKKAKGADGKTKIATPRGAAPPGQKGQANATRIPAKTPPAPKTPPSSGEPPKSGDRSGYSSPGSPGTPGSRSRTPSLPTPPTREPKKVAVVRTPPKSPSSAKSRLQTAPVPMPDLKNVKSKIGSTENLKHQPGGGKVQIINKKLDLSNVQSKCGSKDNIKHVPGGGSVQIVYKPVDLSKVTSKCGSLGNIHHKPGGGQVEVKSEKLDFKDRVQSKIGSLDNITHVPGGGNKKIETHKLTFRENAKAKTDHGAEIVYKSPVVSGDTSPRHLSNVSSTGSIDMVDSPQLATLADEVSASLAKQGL
Sequence of hyperphosphorylated tau phosphorylated at serine 396 in human Alzheimer brain (extracts and sections) (human) (P10636 other isoform, or with tags, fused parts or gaps limits assumed): as above
Sequence of aggregated Tau in Alzheimer brain extract (Cisbio assay) (human) (P10636 other isoform, or with tags, fused parts or gaps limits assumed): as above
Sequence of total tau in Alzheimer brain extract (human) (P10636 other isoform, or with tags, fused parts or gaps limits assumed): as above
Sequence of hyper-phosphorylated P301L mutant human 4R0N tau from rTg4510 mouse brain (64 and 70 kDa species; P3 / brain extract) (human) (P10636 other isoform, or with tags, fused parts or gaps P301L P301L): as the sequence (P10636 other isoform, or with tags, fused parts or gaps P301L P301L) above

IC50 [1]: 320 nM | IC50 [2]: 3 nM | mean Signal [3]: 1880 signal | signal [3]: 1890 signal and 1870 signal | mean Signal [4]: 5720 signal | signal [4]: 5860 signal and 5580 signal | mean Signal [5]: 11900 signal | signal [5]: 12000 signal and 11800 signal | mean Signal [6]: 21800 signal | signal [6]: 21900 signal and 21700 signal | mean Signal [7]: 30400 signal | signal [7]: 30300 signal and 30500 signal | percent removed by immunodepletion [8]: 93% | mean Signal [9]: 38500 signal | signal [9]: 38200 signal and 38800 signal | IC50 [10]: 3 nM | IC50 [11]: 10 to 20 nM | mean Signal [12]: 51200 signal | signal [12]: 51300 signal and 51100 signal | percent removed by immunodepletion [13]: 90% | AD/ctrl [14]: > 100 fold | IC50 [15]: 10 to 20 nM | mean Signal [16]: 366 signal | signal [16]: 384 signal and 348 signal | mean Signal [17]: 383 signal | signal [17]: 398 signal and 367 signal | mean Signal [18]: 345 signal | signal [18]: 384 signal and 306 signal | mean Signal [19]: 357 signal | signal [19]: 401 signal and 313 signal | mean Signal [20]: 407 signal | signal [20]: 434 signal and 379 signal | mean Signal [21]: 451 signal | signal [21]: 462 signal and 439 signal | mean Signal [22]: 870 signal | signal [22]: 920 signal and 820 signal
Substance: Antibody C10-2 (murine)

percent removed by immunodepletion [23]: 88% | percent removed by immunodepletion [24]: 89% | TG/wt [25]: 51 fold | percent of aggregated Tau removed [26]: 99% | AD/ctrl [14]: 3 fold
Substance: HJ8.5 (antibody)

IC50 [27]: 500 to 1000 nM | mean Signal [28]: 12600 signal | signal [28]: 13700 signal and 11600 signal | mean Signal [29]: 5790 signal | signal [29]: 6130 signal and 5460 signal | mean Signal [30]: 2880 signal | signal [30]: 2900 signal and 2860 signal | mean Signal [31]: 1580 signal | signal [31]: 1660 signal and 1500 signal | mean Signal [32]: 852 signal | signal [32]: 856 signal and 847 signal | mean Signal [33]: 560 signal | signal [33]: 568 signal and 551 signal | mean Signal [34]: 335 signal | signal [34]: 358 signal and 312 signal | mean Signal [35]: 6900 signal | signal [35]: 7540 signal and 6250 signal | mean Signal [36]: 2180 signal | signal [36]: 2280 signal and 2080 signal | mean Signal [37]: 481 signal | signal [37]: 472 signal and 490 signal | mean Signal [38]: 355 signal | signal [38]: 370 signal and 340 signal | mean Signal [39]: 299 signal | signal [39]: 305 signal and 292 signal | mean Signal [40]: 280 signal | signal [40]: 284 signal and 276 signal | mean Signal [41]: 953 signal | signal [41]: 1020 signal and 886 signal
Substance: PHF13 (commercially available antibody for Tau phosphorylated at Ser 396)

percent reduction of the 55 kDa band [42]: 74%
Substance: Tau5 (commercial total Tau antibody, Invitrogen)
